Results taken from patent US20090246248A1, “COATING COMPOSITIONS HAVING IMPROVED PERFORMANCE” (priority 2008, published 2009).
Numbered stars: 1 amine (or outer) side, 2 acyl side, 3 side chain; on linkers, the order of the positions; unused ones are H or OH. Square brackets hold non-standard residues; d marks the D form. Ends that are not written are not given here. * marks the point of attachment. (AUD)6 = six aminoundecanoic acid units between the two peptides, O=C(CCCCCCCCCCNC(=O)CCCCCCCCCCNC(=O)CCCCCCCCCCN[*:1])NCCCCCCCCCCC(=O)NCCCCCCCCCCC(=O)NCCCCCCCCCCC(=O)[*:2]; Biotin = O=C1N[C@H]2[C@H](CS[C@H]2CCCCC(=O)*)N1; P10 = 10 unit polyethylene glycol polymer; Myristoyl = CCCCCCCCCCCCCC(=O)*; Lauroyl = CCCCCCCCCCCC(=O)*; linker = not defined here; (MP)2 = not defined here; AEEA = NCCOCCOCC(=O)O

T1: GDF-7 (R&D SYSTEMS)
T1 sequence (Q7Z4P5 322-450, species assumed, looked up): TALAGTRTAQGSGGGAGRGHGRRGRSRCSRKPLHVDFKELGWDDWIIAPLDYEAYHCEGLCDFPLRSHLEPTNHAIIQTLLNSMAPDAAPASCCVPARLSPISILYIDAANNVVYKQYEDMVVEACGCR

B1: SEQ ID NO 147 (peptide)
peptide: YFRAFRKFVKPFKRAFK[(MP)2][code s][code s]GGVGGWALFETLRGKEV[code s][code r]GSSGK(Biotin)-NH2
modifications: not fully specified; printed as YFRAFRKFVKPFKRAFK-(MP)2-ssGGVGGWALFETLRGKEVsr-GSSGK-B-NH2; reading uncertain
B2: SEQ ID NO 149 (peptide)
peptide: [code s][code s]GGVGGWALFETLRGKEV[code s][code r][P10]YFRAFRKFVKPFKRAFKGSSGK(Biotin)-NH2
modifications: not fully specified; printed as ssGGVGGWALFETLRGKEVsr-P10-YFRAFRKFVKPFKRAFK-GSSGK-B-NH2
B3: SEQ ID NO 150 (peptide)
peptide: SWWGFWNGSAAPVWSRGSSG[code s][code s]GGVGGWALFETLRGKEV[code s][code r]GSSGK(Biotin)-NH2
modifications: not fully specified; printed as SWWGFWNGSAAPVWSR-GSSG-ssGGVGGWALFETLRGKEVsr-GSSGK-B-NH2
B4: SEQ ID NO 153 (peptide)
peptide: [code s][code s]GGVGGWALFETLRGKEV[code s][code r][P10]SWWGFWNGSAAPVWSRGSSGK(Biotin)-NH2
modifications: not fully specified; printed as ssGGVGGWALFETLRGKEVsr-P10-SWWGFWNGSAAPVWSR-GSSGK-B-NH2

system: not listed separately; assay: Critical micelle concentration (methyl orange assay); format: physicochemical; details: pH 7 PBS, A484
Description: Formation of a composition of the invention, and evidence of macromolecular network formation, may be monitored or quantified by any means known in the art. In this example, macromolecular formation was detected using a standard assay for determining critical micelle concentration (“CMC”). In this assay, a solution containing the composition of the invention (in a range of concentrations in pH 7 phosphate buffered saline (“PBS”)) was mixed with a solution of methyl orange (0.04 mM in PBS), and the absorbance of the mixture was measured at 484 nm (A484). CMC is the concentration at which a sharp decrease in absorbance at A484 is observed, a change in the optical properties of methyl orange when trapped in a hydrophobic phase, such as caused by self-association as a macromolecular network (Table 7, “CMC”). Also included in this assay were an assay control peptide having an amino acid sequence of SEQ ID NO:122 (Table 7, “Control”), and compound 119 (a PEGylated peptide, the peptide having an amino acid sequence of SEQ ID NO:122, as described in more detail in Example 6 herein).

Molecule | CMC
[MYR]2-K-linker-SEQ ID NO: 122 (SSHRTNHKKNNPKKKNKTRGSSGK; also: lysine bearing two myristoyl groups, place not given here, linker, place and nature not given here) [Compound 128] | 0.123 µM
LAU-SEQ ID NO: 122 (Lauroyl-SSHRTNHKKNNPKKKNKTRGSSGK) [Compound 126] | 0.37 µM
MYR-SEQ ID NO: 122 (Myristoyl-SSHRTNHKKNNPKKKNKTRGSSGK) [Compound 125] | 0.123 µM
SSHRTNHKKNNPKKKNKTRGSSGK [SEQ ID NO:122, assay control peptide] | >>10 μM
PALM-PALM-PALM-linker-SEQ ID NO: 122 (SSHRTNHKKNNPKKKNKTRGSSGK; also: three palmitoyl groups, place not given here, linker, place and nature not given here) [Compound 129] | 0.123 µM
MYR-linker-SEQ ID NO: 122 ({Myristoyl-linker}-SSHRTNHKKNNPKKKNKTRGSSGK; reading uncertain) [Compound 127] | 0.123 µM

system: not listed separately; assay: Vancomycin loading onto titanium bead (HPLC of HCl eluate); details: mixture with vancomycin, 30 mins 20° C., washed with PBS
Description: The experimental procedure used for the embodiments described above was as follows. […] All three components were mixed and then applied to the metal bead. […] All three components were mixed and then applied to the metal bead. […] The mixtures were applied to the metal beads and incubated for 30 mins at 20° C. with 700 rpm shaking. The beads were washed three times with 350 ul PBS. Beads were analyzed as follows: 200 ul of 100 mM HCl was added to each bead and incubated for 30 mins at 20° C. with 1,000 rpm shaking. The eluate from each bead was analyzed by HPLC using Phenomenex Luna 3 um column, 50×4.60 mm. Output was compared to a standard curve for vancomycin to determine the amount of vancomycin retained onto the metal bead.

Molecule | Vancomycin Load
MA-AHx-SSCLIDIYGVCHNFDAY-miniPeg-miniPeg-YFRAFRKFVKPFKRAFKGSSK(Biotin) [SEQ ID NO: 165] | 1,700 pmol/cm2
RRRRRRR-PSSHRTNHKKNNPKKKNKTRGP-RRRRRRR-K(biotin) [SEQ ID NO: 156] | <10 pmol/cm2
SSSCLIDMYGVCHNFDGAYDSSRG-miniPeg-miniPeg-SSHRTNHKKNNPKKKNKTRGSSGK (SSSCLIDMYGVCHNFDGAYDSSRG[AEEA][AEEA]SSHRTNHKKNNPKKKNKTRGSSGK; not fully specified (bridges); printed as SSSCLIDMYGVCHNFDGAYDSSRG-miniPeg-miniPeg-SSHRTNHKKNNPKKKNKTRGSSGK; cysteine pairing not given here) [SEQ ID NO: 163] | 54 pmol/cm2
Pyrene-butyric-SSCLIDIYGVCHNFDAY-miniPeg-miniPeg-HKKNNPKKKNKTRGSS-K(Biotin) [SEQ ID NO: 166] | 173 pmol/cm2
MA-Ahx-SSCLIDIYGVCHNFDAY-miniPeg-miniPeg-HKKNNPKKKNKTRGSSK(Biotin) [SEQ ID NO: 164] | 278 pmol/cm2

target: T1, GDF-7 (R&D SYSTEMS); assay: GDF-7 capture on peptide-coated sutures; anti-GDF-7 antibody/AP, pNPP read-out; relative EC50; lower limit told of the whole group; details: not given

Molecule | EC50 [nM]
[code s][code s]GGVGGWALFETLRGKEV[code s][code r]GSSGYFRAFRKFVKPFKRAFKGSSGK(Biotin)-NH2 (not fully specified) [SEQ ID NO 155] | > 20
B1 | > 20
B2 | > 20
[code s][code s]GGVGGWALFETLRGKEV[code s][code r][(MP)2]SWWGFWNGSAAPVWSRGSSGK(Biotin)-NH2 (not fully specified; reading uncertain) [SEQ ID NO 152] | > 20
B3 | > 20
B4 | > 20
[code s][code s]GGVGGWALFETLRGKEV[code s][code r][(AUD)6]SWWGFWNGSAAPVWSRGSSGK(Biotin)-NH2 (not fully specified) [SEQ ID NO 154] | > 20
[code s][code s]GGVGGWALFETLRGKEV[code s][code r][(MP)2]YFRAFRKFVKPFKRAFKGSSGK(Biotin)-NH2 (not fully specified; reading uncertain) [SEQ ID NO 148] | > 20
